T1: amphyphisin SH3 (AMPH_HUMAN), P49418
T1 chain: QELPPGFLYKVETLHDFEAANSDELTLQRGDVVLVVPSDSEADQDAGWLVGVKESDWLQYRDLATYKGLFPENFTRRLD


Target: T1, amphyphisin SH3 (AMPH_HUMAN), P49418
Assay: SPOT array

Going from PHSAPLRPPRELHA [Q9NVV2 32-45] to PPARPPRPPYPPRR [AAH27972 518-532], the normalised SPOT signal, Boehringer light units (BLU); mean over the file's lines of this peptide rises from 9310 to 16000.

Compared with PLRHFKRPAYASSS [Q14123 658-671], PKTPPRRPVPVADS [Q9HA84 52-65] is higher in normalised SPOT signal, Boehringer light units (BLU); mean over the file's lines of this peptide: 28.7 for the first, 314 for the second.

Going from PLPAPRRPKVNSIL [Q9H3X8 431-444] to PMVPPRRPWTLVNW [Q9NRZ5 298-311], the normalised SPOT signal, Boehringer light units (BLU); mean over the file's lines of this peptide falls from 4680 to 2870.

Going from PLPRFPRPPRALPA [P56730 61-74] to PNLIPRRPSPYEKT [O95450 1177-1190], the normalised SPOT signal, Boehringer light units (BLU); mean over the file's lines of this peptide falls from 1910 to 131.

Going from PKKPPVKPPTEPIG [Q9ULW0 418-432] to PKISPQKPPRKDME [AAM49716 571-585], the normalised SPOT signal, Boehringer light units (BLU); mean over the file's lines of this peptide rises from 37.6 to 2910.

Going from PNIKISRPLKVLLT [Q9NPB9 231-244] to PPALPPKPPKPMTS [Q92569 33-47], the normalised SPOT signal, Boehringer light units (BLU); mean over the file's lines of this peptide falls from 91.3 to 88.3.

First: ARVPLGRPRRRPRA [O60331 5-18]
Second: PPAPPLRPPGPPTG [Q9Y2W2 415-429]
The normalised SPOT signal, Boehringer light units (BLU); mean over the file's lines of this peptide of the first is higher: 421 for the first, 356 for the second.

Going from ASAPPRRPRPPPQS [Q9UEI9 3-16] to PLRLPPRPPGPRLA [O95822 14-28], the normalised SPOT signal, Boehringer light units (BLU); mean over the file's lines of this peptide rises from 914 to 4940.

Going from PKDYPLRPPKMKFI [Q99462 62-75] to PLLHLTRPSRLEPG [P52849 207-220], the normalised SPOT signal, Boehringer light units (BLU); mean over the file's lines of this peptide rises from 81.5 to 1780.

First: PPALPPKPPKPTTV [AAH30815 33-47]
Second: PLRPILRPRKYPNR [P11161 316-329]
The normalised SPOT signal, Boehringer light units (BLU); mean over the file's lines of this peptide of the first is lower: 77.9 for the first, 2100 for the second.

First: PISVLRRPGANHEG [Q9Y2Z7 47-60]
Second: PKSVLKRPVTSEEL [Q9HA07 306-319]
The normalised SPOT signal, Boehringer light units (BLU); mean over the file's lines of this peptide of the first is higher: 46.1 for the first, 37.6 for the second.

Compared with PNATPRRPLQELRR [Q9HCF2 2-15], PMEGIRRPDQALLP [O00253 27-40] is lower in normalised SPOT signal, Boehringer light units (BLU); mean over the file's lines of this peptide: 405 for the first, 36 for the second.

Going from PPAPPTRPPRRSDS [P35443 278-292] to PNYDLRRPHQYLHP [O94991 899-912], the normalised SPOT signal, Boehringer light units (BLU); mean over the file's lines of this peptide falls from 20500 to 24.6.

Compared with PHKRPRRPHQIADL [Q96FN8 185-198], PKERLRRPETSGIS [O75698 245-258] is lower in normalised SPOT signal, Boehringer light units (BLU); mean over the file's lines of this peptide: 75.3 for the first, 38.7 for the second.

Going from PKRGPRRPKYSPPR [Q14669 1006-1019] to PPALPPKPPKAKPA [O00459 298-312], the normalised SPOT signal, Boehringer light units (BLU); mean over the file's lines of this peptide rises from 12.1 to 124.

First: PLMHPARPFRVSNH [O60543 29-42]
Second: PPAPLRRPLAVLHA [Q96BU4 174-187]
The normalised SPOT signal, Boehringer light units (BLU); mean over the file's lines of this peptide of the first is higher: 8020 for the first, 315 for the second.

Compared with PMAPIRRPISAESA [P53675 58-71], PNLLPHRPPLLVFP [Q9Y6X6 669-683] is lower in normalised SPOT signal, Boehringer light units (BLU); mean over the file's lines of this peptide: 1010 for the first, 70.2 for the second.

Compared with PIQNIKRPYPGEVS [Q9H7J0 315-328], ASAPPRRPRPPPPS [Q9UEF7 3-16] is higher in normalised SPOT signal, Boehringer light units (BLU); mean over the file's lines of this peptide: 48.7 for the first, 230 for the second.

First: ASAPPQRPPSGPEG [Q96LW7 145-159]
Second: PLISFPRPVKTTWL [Q9P2D6 185-198]
The normalised SPOT signal, Boehringer light units (BLU); mean over the file's lines of this peptide of the first is lower: 21.2 for the first, 201 for the second.

Going from PPASPRRPRSFKSK [Q9HCK6 1105-1118] to PLLPPKRPLSSSHE [Q9H6X0 119-132], the normalised SPOT signal, Boehringer light units (BLU); mean over the file's lines of this peptide rises from 58.1 to 680.

First: PKTYLRRPEASSPA [Q92932 113-126]
Second: PMRLPRRPLRAFES [O14545 178-191]
The normalised SPOT signal, Boehringer light units (BLU); mean over the file's lines of this peptide of the first is lower: 21.6 for the first, 5210 for the second.

What follows are binders tested against endophilin SH3 (SH3G2_HUMAN), Q99962 (assay: SPOT array).

First: PHSAPLRPPRELHA [Q9NVV2 32-45]
Second: PPARPPRPPYPPRR [AAH27972 518-532]
The normalised SPOT signal, Boehringer light units (BLU); mean over the file's lines of this peptide of the first is lower: 13000 for the first, 20000 for the second.

First: PLRHFKRPAYASSS [Q14123 658-671]
Second: PKTPPRRPVPVADS [Q9HA84 52-65]
The normalised SPOT signal, Boehringer light units (BLU); mean over the file's lines of this peptide of the first is lower: 9.5 for the first, 61.3 for the second.

Going from PLPAPRRPKVNSIL [Q9H3X8 431-444] to PMVPPRRPWTLVNW [Q9NRZ5 298-311], the normalised SPOT signal, Boehringer light units (BLU); mean over the file's lines of this peptide falls from 744 to 648.

Going from PLPRFPRPPRALPA [P56730 61-74] to PNLIPRRPSPYEKT [O95450 1177-1190], the normalised SPOT signal, Boehringer light units (BLU); mean over the file's lines of this peptide falls from 3490 to 398.

Compared with PKKPPVKPPTEPIG [Q9ULW0 418-432], PKISPQKPPRKDME [AAM49716 571-585] is higher in normalised SPOT signal, Boehringer light units (BLU); mean over the file's lines of this peptide: 64.2 for the first, 487 for the second.

Compared with PNIKISRPLKVLLT [Q9NPB9 231-244], PPALPPKPPKPMTS [Q92569 33-47] is higher in normalised SPOT signal, Boehringer light units (BLU); mean over the file's lines of this peptide: 155 for the first, 2510 for the second.

Compared with ARVPLGRPRRRPRA [O60331 5-18], PPAPPLRPPGPPTG [Q9Y2W2 415-429] is higher in normalised SPOT signal, Boehringer light units (BLU); mean over the file's lines of this peptide: 200 for the first, 3740 for the second.

Going from ASAPPRRPRPPPQS [Q9UEI9 3-16] to PLRLPPRPPGPRLA [O95822 14-28], the normalised SPOT signal, Boehringer light units (BLU); mean over the file's lines of this peptide rises from 1320 to 18500.

First: PKDYPLRPPKMKFI [Q99462 62-75]
Second: PLLHLTRPSRLEPG [P52849 207-220]
The normalised SPOT signal, Boehringer light units (BLU); mean over the file's lines of this peptide of the first is higher: 1880 for the first, 1220 for the second.

Compared with PPALPPKPPKPTTV [AAH30815 33-47], PLRPILRPRKYPNR [P11161 316-329] is higher in normalised SPOT signal, Boehringer light units (BLU); mean over the file's lines of this peptide: 3470 for the first, 4850 for the second.

First: PISVLRRPGANHEG [Q9Y2Z7 47-60]
Second: PKSVLKRPVTSEEL [Q9HA07 306-319]
The normalised SPOT signal, Boehringer light units (BLU); mean over the file's lines of this peptide of the first is higher: 90.8 for the first, 48.9 for the second.

Compared with PNATPRRPLQELRR [Q9HCF2 2-15], PMEGIRRPDQALLP [O00253 27-40] is lower in normalised SPOT signal, Boehringer light units (BLU); mean over the file's lines of this peptide: 1570 for the first, 66 for the second.

Going from PPAPPTRPPRRSDS [P35443 278-292] to PNYDLRRPHQYLHP [O94991 899-912], the normalised SPOT signal, Boehringer light units (BLU); mean over the file's lines of this peptide falls from 12100 to 0.

Compared with PHKRPRRPHQIADL [Q96FN8 185-198], PKERLRRPETSGIS [O75698 245-258] is lower in normalised SPOT signal, Boehringer light units (BLU); mean over the file's lines of this peptide: 58.2 for the first, 32.6 for the second.

Going from PKRGPRRPKYSPPR [Q14669 1006-1019] to PPALPPKPPKAKPA [O00459 298-312], the normalised SPOT signal, Boehringer light units (BLU); mean over the file's lines of this peptide rises from 83.3 to 4320.

Compared with PLMHPARPFRVSNH [O60543 29-42], PPAPLRRPLAVLHA [Q96BU4 174-187] is lower in normalised SPOT signal, Boehringer light units (BLU); mean over the file's lines of this peptide: 15800 for the first, 453 for the second.

Going from PMAPIRRPISAESA [P53675 58-71] to PNLLPHRPPLLVFP [Q9Y6X6 669-683], the normalised SPOT signal, Boehringer light units (BLU); mean over the file's lines of this peptide falls from 464 to 191.

First: PIQNIKRPYPGEVS [Q9H7J0 315-328]
Second: ASAPPRRPRPPPPS [Q9UEF7 3-16]
The normalised SPOT signal, Boehringer light units (BLU); mean over the file's lines of this peptide of the first is lower: 110 for the first, 9160 for the second.

First: ASAPPQRPPSGPEG [Q96LW7 145-159]
Second: PLISFPRPVKTTWL [Q9P2D6 185-198]
The normalised SPOT signal, Boehringer light units (BLU); mean over the file's lines of this peptide of the first is higher: 435 for the first, 172 for the second.

First: PPASPRRPRSFKSK [Q9HCK6 1105-1118]
Second: PLLPPKRPLSSSHE [Q9H6X0 119-132]
The normalised SPOT signal, Boehringer light units (BLU); mean over the file's lines of this peptide of the first is lower: 272 for the first, 10400 for the second.

Compared with PKTYLRRPEASSPA [Q92932 113-126], PMRLPRRPLRAFES [O14545 178-191] is higher in normalised SPOT signal, Boehringer light units (BLU); mean over the file's lines of this peptide: 60.7 for the first, 1200 for the second.

Source: paper PMC314469, “Protein Interaction Networks by Proteome Peptide Scanning” (PLoS Biology, 2004)
